Results on seven molecules are retold here after patent publication US20240321457A1 (University of California, published 2024).

Assay [1] has as its target T1, UBE2N (human, UniProt P61088 1-152).
T1 construct: endogenous prey from cell lysate; also called UBC13
T1 sequence (looked up): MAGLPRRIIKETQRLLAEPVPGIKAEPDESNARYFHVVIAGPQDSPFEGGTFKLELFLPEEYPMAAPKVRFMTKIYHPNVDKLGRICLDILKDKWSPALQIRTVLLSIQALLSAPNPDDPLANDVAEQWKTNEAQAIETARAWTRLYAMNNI
Nature of the assay: AP-MS, PPI score from compPASS and SAINTexpress, MDA-MB-231 cells.
Description: For AP-MS experiments, samples were resuspended in 15 μL of MS loading buffer (4% formic acid, 2% acetonitrile) and 2 μL were separated by a reversed-phase gradient over a nanoflow 75 μm ID×25 cm long picotip column packed with 1.9 μM C18 particles (Dr. Maisch). Peptides were directly injected over the course of a 75 min acquisition into a Q-Exactive Plus mass spectrometer (Thermo), or over the course of a 90 min acquisition into a Orbitrap Elite mass spectrometer. […] Peptides and proteins were filtered to 1% false discovery rate in MaxQuant, and identified proteins were then subjected to protein-protein interaction scoring.
All PPI scoring was performed separately for each cell line. For SAINTexpress, control samples in which bait protein was not induced by addition of doxycycline were used. For CompPASS, a stats table representing all WT baits was used. After scoring, the CompPASS WD and Z-score were normalized within a given bait for each cell line. The total list of candidate PPIs was filtered to those that met the following criteria: SAINTexpress BFDR=<0.05, WD percentile by bait>=0.95, and Z-score percentile by bait≤=0.95. PPIs passing all 3 of these criteria were considered to be high-confidence PPIs. To enable visualization and analysis of PPIs by confidence score among these 3 criteria, a PPI score was calculated: [(WD percentile by bait+Z-score percentile by bait)/2)+(1−BFDR)]/2.

Assay [2] concerns the target T1, UBE2N. The assay is described as follows: quantitative AP-MS, prey abundance normalised to bait, MDA-MB-231 cells.
Assay [3] concerns the target T2, BRCA1 S1655F (human, UniProt P38398 1-1863).
T2 construct: 3xFLAG-tagged bait; also called BRCT domain mutant S1655F; 51655F
The assay is described as follows: AP-MS, 3xFLAG bait, MDA-MB-231 cells.

The target of assay [4] is T3, BRCA1 5382insC (human, UniProt P38398 1-1755, limits assumed).
T3 construct: 3xFLAG-tagged bait; also called 5832insC
The assay is described as follows: AP-MS, 3xFLAG bait, MDA-MB-231 cells.

Assay [5] addresses T4, BRCA1 M1775R (human, UniProt P38398 1-1863).
T4 construct: 3xFLAG-tagged bait; also called BRCT domain mutant M1775R
The assay is described as follows: AP-MS, 3xFLAG bait, MDA-MB-231 cells.

Assay [6] deals with T2, BRCA1 S1655F. The assay is described as follows: AP-MS, MSstats WT vs mutant, MDA-MB-231 cells.
The target in assay [7] is T3, BRCA1 5382insC. Nature of the assay: AP-MS, MSstats WT vs mutant, MDA-MB-231 cells.
Assay [8] addresses T4, BRCA1 M1775R. Nature of the assay: AP-MS, MSstats WT vs mutant, MDA-MB-231 cells.
A further assay addresses AKT1 E17K mutant (human, UniProt P31749 1-480). Nature of the assay: AP-MS, 3xFLAG bait, breast cell lines.
Another assay deals with AKT3 E17K mutant (human, UniProt Q9Y243 1-479). The assay is described as follows: AP-MS, 3xFLAG bait, breast cell lines.
AKT3 E17K mutant, sequence (Q9Y243 whole entry E17K): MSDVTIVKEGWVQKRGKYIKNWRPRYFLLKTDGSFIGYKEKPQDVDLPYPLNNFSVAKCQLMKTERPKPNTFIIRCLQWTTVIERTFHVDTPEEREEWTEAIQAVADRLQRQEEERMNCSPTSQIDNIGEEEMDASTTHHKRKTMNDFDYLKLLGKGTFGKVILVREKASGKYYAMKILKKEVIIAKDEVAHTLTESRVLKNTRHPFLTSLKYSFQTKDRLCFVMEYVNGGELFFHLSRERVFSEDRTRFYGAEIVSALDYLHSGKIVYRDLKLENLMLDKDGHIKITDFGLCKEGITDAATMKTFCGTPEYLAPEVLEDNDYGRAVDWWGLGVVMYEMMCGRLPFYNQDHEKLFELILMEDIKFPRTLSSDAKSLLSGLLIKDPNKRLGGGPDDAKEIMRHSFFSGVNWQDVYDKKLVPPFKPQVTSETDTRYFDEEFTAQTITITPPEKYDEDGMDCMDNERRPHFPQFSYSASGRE

AKT1 E17K mutant, sequence (P31749 whole entry E17K): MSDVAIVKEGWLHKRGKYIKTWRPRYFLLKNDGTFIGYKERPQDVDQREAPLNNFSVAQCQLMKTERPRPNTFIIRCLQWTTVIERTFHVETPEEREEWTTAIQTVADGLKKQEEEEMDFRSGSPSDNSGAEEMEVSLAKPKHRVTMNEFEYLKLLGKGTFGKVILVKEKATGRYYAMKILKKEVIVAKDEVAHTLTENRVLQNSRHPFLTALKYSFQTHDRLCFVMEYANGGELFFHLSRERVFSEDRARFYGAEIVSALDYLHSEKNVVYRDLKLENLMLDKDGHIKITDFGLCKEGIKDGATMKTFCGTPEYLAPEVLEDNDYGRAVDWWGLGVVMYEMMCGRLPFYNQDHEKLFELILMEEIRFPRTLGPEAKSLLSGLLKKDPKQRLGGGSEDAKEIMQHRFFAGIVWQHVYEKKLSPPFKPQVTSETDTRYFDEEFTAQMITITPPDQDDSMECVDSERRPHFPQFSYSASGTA

B1: BRCA1 I26A (enzyme, human, UniProt P38398 1-1863, looked up)
chain: MDLSALRVEEVQNVINAMQKILECPACLELIKEPVSTKCDHIFCKFCMLKLLNQKKGPSQCPLCKNDITKRSLQESTRFSQLVEELLKIICAFQLDTGLEYANSYNFAKKENNSPEHLKDEVSIIQSMGYRNRAKRLLQSEPENPSLQETSLSVQLSNLGTVRTLRTKQRIQPQKTSVYIELGSDSSEDTVNKATYCSVGDQELLQITPQGTRDEISLDSAKKAACEFSETDVTNTEHHQPSNNDLNTTEKRAAERHPEKYQGSSVSNLHVEPCGTNTHASSLQHENSSLLLTKDRMNVEKAEFCNKSKQPGLARSQHNRWAGSKETCNDRRTPSTEKKVDLNADPLCERKEWNKQKLPCSENPRDTEDVPWITLNSSIQKVNEWFSRSDELLGSDDSHDGESESNAKVADVLDVLNEVDEYSGSSEKIDLLASDPHEALICKSERVHSKSVESNIEDKIFGKTYRKKASLPNLSHVTENLIIGAFVTEPQIIQERPLTNKLKRKRRPTSGLHPEDFIKKADLAVQKTPEMINQGTNQTEQNGQVMNITNSGHENKTKGDSIQNEKNPNPIESLEKESAFKTKAEPISSSISNMELELNIHNSKAPKKNRLRRKSSTRHIHALELVVSRNLSPPNCTELQIDSCSSSEEIKKKKYNQMPVRHSRNLQLMEGKEPATGAKKSNKPNEQTSKRHDSDTFPELKLTNAPGSFTKCSNTSELKEFVNPSLPREEKEEKLETVKVSNNAEDPKDLMLSGERVLQTERSVESSSISLVPGTDYGTQESISLLEVSTLGKAKTEPNKCVSQCAAFENPKGLIHGCSKDNRNDTEGFKYPLGHEVNHSRETSIEMEESELDAQYLQNTFKVSKRQSFAPFSNPGNAEEECATFSAHSGSLKKQSPKVTFECEQKEENQGKNESNIKPVQTVNITAGFPVVGQKDKPVDNAKCSIKGGSRFCLSSQFRGNETGLITPNKHGLLQNPYRIPPLFPIKSFVKTKCKKNLLEENFEEHSMSPEREMGNENIPSTVSTISRNNIRENVFKEASSSNINEVGSSTNEVGSSINEIGSSDENIQAELGRNRGPKLNAMLRLGVLQPEVYKQSLPGSNCKHPEIKKQEYEEVVQTVNTDFSPYLISDNLEQPMGSSHASQVCSETPDDLLDDGEIKEDTSFAENDIKESSAVFSKSVQKGELSRSPSPFTHTHLAQGYRRGAKKLESSEENLSSEDEELPCFQHLLFGKVNNIPSQSTRHSTVATECLSKNTEENLLSLKNSLNDCSNQVILAKASQEHHLSEETKCSASLFSSQCSELEDLTANTNTQDPFLIGSSKQMRHQSESQGVGLSDKELVSDDEERGTGLEENNQEEQSMDSNLGEAASGCESETSVSEDCSGLSSQSDILTTQQRDTMQHNLIKLQQEMAELEAVLEQHGSQPSNSYPSIISDSSALEDLRNPEQSTSEKAVLTSQKSSEYPISQNPEGLSADKFEVSADSSTSKNKEPGVERSSPSKCPSLDDRWYMHSCSGSLQNRNYPSQEELIKVVDVEEQQLEESGPHDLTETSYLPRQDLEGTPYLESGISLFSDDPESDPSEDRAPESARVGNIPSSTSALKVPQLKVAESAQSPAAAHTTDTAGYNAMEESVSREKPELTASTERVNKRMSMVVSGLTPEEFMLVYKFARKHHITLTNLITEETTHVVMKTDAEFVCERTLKYFLGIAGGKWVVSYFWVTQSIKERKMLNEHDFEVRGDVVNGRNHQGPKRARESQDRKIFRGLEICCYGPFTNMPTDQLEWMVQLCGASVVKELSSFTLGTGVHPIVVVQPDAWTEDNGFHAIGQMCEAPVVTREWVLDSVALYQCQELDTYLIPQIPHSHY
notes: 3xFLAG-tagged bait; printed I16A in the embodiments; also called RING domain mutant I26A
In the assay with UBE2N [1], B1 came in with a PPI score of less than 0.6. In the assay with UBE2N [2], the “fold reduction of associated prey compared to WT” value was determined as 6 fold.

B2: UIMC1 (other, human, UniProt Q96RL1 1-719, looked up)
chain: MPRRKKKVKEVSESRNLEKKDVETTSSVSVKRKRRLEDAFIVISDSDGEEPKEENGLQKTKTKQSNRAKCLAKRKIAQMTEEEQFALALKMSEQEAREVNSQEEEEEELLRKAIAESLNSCRPSDASATRSRPLATGPSSQSHQEKTTDSGLTEGIWQLVPPSLFKGSHISQGNEAEEREEPWDHTEKTEEEPVSGSSGSWDQSSQPVFENVNVKSFDRCTGHSAEHTQCGKPQESTGRGSAFLKAVQGSGDTSRHCLPTLADAKGLQDTGGTVNYFWGIPFCPDGVDPNQYTKVILCQLEVYQKSLKMAQRQLLNKKGFGEPVLPRPPSLIQNECGQGEQASEKNECISEDMGDEDKEERQESRASDWHSKTKDFQESSIKSLKEKLLLEEEPTTSHGQSSQGIVEETSEEGNSVPASQSVAALTSKRSLVLMPESSAEEITVCPETQLSSSETFDLEREVSPGSRDILDGVRIIMADKEVGNKEDAEKEVAISTFSSSNQVSCPLCDQCFPPTKIERHAMYCNGLMEEDTVLTRRQKEAKTKSDSGTAAQTSLDIDKNEKCYLCKSLVPFREYQCHVDSCLQLAKADQGDGPEGSGRACSTVEGKWQQRLKNPKEKGHSEGRLLSFLEQSEHKTSDADIKSSETGAFRVPSPGMEEAGCSREMQSSFTRRDLNESPVKSFVSISEATDCLVDFKKQVTVQPGSRTRTKAGRGRRRKF
notes: endogenous prey from cell lysate
As for B2, the binding result in the assay with BRCA1 S1655F [3], with BRCA1 5382insC [4] and with BRCA1 M1775R [5] was “no binding” throughout.

B3: RBBP8 (other, human, UniProt Q99708 1-897, looked up)
chain: MNISGSSCGSPNSADTSSDFKDLWTKLKECHDREVQGLQVKVTKLKQERILDAQRLEEFFTKNQQLREQQKVLHETIKVLEDRLRAGLCDRCAVTEEHMRKKQQEFENIRQQNLKLITELMNERNTLQEENKKLSEQLQQKIENDQQHQAAELECEEDVIPDSPITAFSFSGVNRLRRKENPHVRYIEQTHTKLEHSVCANEMRKVSKSSTHPQHNPNENEILVADTYDQSQSPMAKAHGTSSYTPDKSSFNLATVVAETLGLGVQEESETQGPMSPLGDELYHCLEGNHKKQPFEESTRNTEDSLRFSDSTSKTPPQEELPTRVSSPVFGATSSIKSGLDLNTSLSPSLLQPGKKKHLKTLPFSNTCISRLEKTRSKSEDSALFTHHSLGSEVNKIIIQSSNKQILINKNISESLGEQNRTEYGKDSNTDKHLEPLKSLGGRTSKRKKTEEESEHEVSCPQASFDKENAFPFPMDNQFSMNGDCVMDKPLDLSDRFSAIQRQEKSQGSETSKNKFRQVTLYEALKTIPKGFSSSRKASDGNCTLPKDSPGEPCSQECIILQPLNKCSPDNKPSLQIKEENAVFKIPLRPRESLETENVLDDIKSAGSHEPIKIQTRSDHGGCELASVLQLNPCRTGKIKSLQNNQDVSFENIQWSIDPGADLSQYKMDVTVIDTKDGSQSKLGGETVDMDCTLVSETVLLKMKKQEQKGEKSSNEERKMNDSLEDMFDRTTHEEYESCLADSFSQAADEEEELSTATKKLHTHGDKQDKVKQKAFVEPYFKGDERETSLQNFPHIEVVRKKEERRKLLGHTCKECEIYYADMPAEEREKKLASCSRHRFRYIPPNTPENFWEVGFPSTQTCMERGYIKEDLDPCPRPKRRQPYNAIFSPKGKEQKT
notes: as for B2
As to B3, the binding result with BRCA1 S1655F [6], with BRCA1 5382insC [7] and in the assay with BRCA1 M1775R [8] was “no binding” in each case.

B4: CSTB (other, human, UniProt P04080 1-98, looked up)
chain: MMCGAPSATQPATAETQHIADQVRSQLEEKENKKFPVFKAVSFKSQVVAGTNYFIKVHVGDEDFVHLRVFQSLPHENKPLTLSNYQTNKAKHDELTYF
notes: as for B2
B4: in the assay with AKT1 E17K mutant, the binding result was “no binding”.

B5: SPRR3 (other, human, UniProt Q9UBC9 2-169, looked up)
chain: SSYQQKQTFTPPPQLQQQQVKQPSQPPPQEIFVPTTKEPCHSKVPQPGNTKIPEPGCTKVPEPGCTKVPEPGCTKVPEPGCTKVPEPGCTKVPEPGCTKVPEPGYTKVPEPGSIKVPDQGFIKFPEPGAIKVPEQGYTKVPVPGYTKLPEPCPSTVTPGPAQQKTKQK
notes: as for B2
On to B5, for which the binding result with AKT1 E17K mutant is “no binding”.

B6: S100 Calcium Binding Protein A3 (other, human, UniProt P33764 2-101, looked up)
chain: ARPLEQAVAAIVCTFQEYAGRCGDKYKLCQAELKELLQKELATWTPTEFRECDYNKFMSVLDTNKDCEVDFVEYVRSLACLCLYCHEYFKDCPSEPPCSQ
notes: endogenous prey from cell lysate; also called S100A3
B6: the binding result with AKT3 E17K mutant is listed as “no binding”.

B7: keratin KRT32 (other, human, UniProt Q14532 1-448, looked up)
chain: MTSSCCVTNNLQASLKSCPRPASVCSSGVNCRPELCLGYVCQPMACLPSVCLPTTFRPASCLSKTYLSSSCQAASGISGSMGPGSWYSEGAFNGNEKETMQFLNDRLASYLTRVRQLEQENAELESRIQEASHSQVLTMTPDYQSHFRTIEELQQKILCTKAENARMVVNIDNAKLAADDFRAKYEAELAMRQLVEADINGLRRILDDLTLCKADLEAQVESLKEELMCLKKNHEEEVGSLRCQLGDRLNIEVDAAPPVDLTRVLEEMRCQYEAMVEANRRDVEEWFNMQMEELNQQVATSSEQLQNYQSDIIDLRRTVNTLEIELQAQHSLRDSLENTLTESEARYSSQLAQMQCMITNVEAQLAEIRADLERQNQEYQVLLDVRARLEGEINTYRSLLENEDCKLPCNPCSTPSCTTCVPSPCVPRTVCVPRTVGMPCSPCPQGRY
notes: as for B2
With B7, in the assay with AKT3 E17K mutant, the binding result was “no binding”.
